Data reported in US20240150449A1 (MABYLON, published 2024).

Biological target: T1, recombinant non-phosphorylated full-length TDP-43 (human, UniProt Q13148 1-414)
T1 construct: Bought recombinant protein; also called non-pathological full-length TDP-43; recombinantly expressed full-length TDP-43 (OriGene Technologies)
Assay: ELISA, antigen coated
Method: Plates were washed with PBS-Tween 0.05% and blocked 1 h at room temperature with PBS containing 5% Milk (Rapilait, Migros, Zurich, Switzerland) or 2% bovine serum albumin (BSA, Sigma-Aldrich Chemie GmbH, Buchs, Switzerland). Patient sera, B cell conditioned medium, or recombinant antibody preparations were incubated for 2 h at room temperature. Binding of human IgG to the antigen of interest was determined using a HRP-conjugated anti human antibody (anti-IgG-HRP from Jackson ImmunoResearch, West Grove, PA, USA) followed by measurement of the HRP activity using a tetramethylbenzidine substrate solution (TMB, Sigma-Aldrich Chemie GmbH, Buchs, Switzerland).

T1 sequence (Q13148 whole entry): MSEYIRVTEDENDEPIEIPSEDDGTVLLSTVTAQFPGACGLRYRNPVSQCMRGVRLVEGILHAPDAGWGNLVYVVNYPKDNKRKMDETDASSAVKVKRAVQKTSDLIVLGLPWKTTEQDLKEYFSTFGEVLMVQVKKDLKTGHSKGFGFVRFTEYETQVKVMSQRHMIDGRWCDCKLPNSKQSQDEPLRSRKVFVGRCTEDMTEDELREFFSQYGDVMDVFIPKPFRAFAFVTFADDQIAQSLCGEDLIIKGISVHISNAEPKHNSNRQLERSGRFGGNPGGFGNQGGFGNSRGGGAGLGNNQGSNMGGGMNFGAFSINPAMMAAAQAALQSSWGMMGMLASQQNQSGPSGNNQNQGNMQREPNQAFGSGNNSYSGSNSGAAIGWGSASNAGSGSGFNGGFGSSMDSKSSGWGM

B1: antibody 15D7 (human IgG) (antibody, V domains shown)
VH: EVQLVESGGGLVQPGGSLRLSCSASGFTFGNYAMHWVRQAPGKGLEYVSAMSSNGGSTYYGDSVKGRFTISRDNSKNTLYLQMSSLRAEDTAVYYCVTRGRKAPSLYYFDCWGPGTLVTVSS
VL: not shown
notes: Recombinant human IgG
B1: no binding.
